Laboratory results published in patent publication US11491212.

Key:
[1] = test system: plasma purified human AT-III (antithrombin III); assay: same assay; ratio of K0.5 to Catalyst Biosciences WT FIXa
[2] = test system: CB 2679d (modified FIX R318Y/R338E/T343R, SEQ ID NO:394), mature single-chain zymogen form
CB 2679d (modified FIX R318Y/R338E/T343R, SEQ ID NO:394), mature single-chain zymogen form, sequence (chain, as listed by the source R318Y R338E T343R): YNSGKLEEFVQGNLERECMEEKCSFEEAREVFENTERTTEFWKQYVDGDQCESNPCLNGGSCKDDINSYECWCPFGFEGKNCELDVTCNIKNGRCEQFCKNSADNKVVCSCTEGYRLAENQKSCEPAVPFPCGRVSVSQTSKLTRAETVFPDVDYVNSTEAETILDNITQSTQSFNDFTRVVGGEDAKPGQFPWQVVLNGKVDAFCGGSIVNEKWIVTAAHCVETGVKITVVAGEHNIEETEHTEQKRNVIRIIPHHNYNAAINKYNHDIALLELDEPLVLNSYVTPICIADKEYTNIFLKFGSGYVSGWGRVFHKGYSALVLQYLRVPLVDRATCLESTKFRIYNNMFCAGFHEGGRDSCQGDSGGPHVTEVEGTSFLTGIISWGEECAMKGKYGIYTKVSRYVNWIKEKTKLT

Row | Substance | K0.5-mut/K0.5-wt [1] [fold] | activation rate and extent of activation by factor XIa/calcium [2]
1 | BeneFIX Coagulation Factor IX (Recombinant), activated (FIXa) | 0.9 | –
2 | FIXa A103N/N105S | 1.1 | –
3 | FIXa D85N | 1.1 | –
4 | FIXa D104N/K106S | 0.9 | –
5 | FIXa K106N/V108S | 1.6 | –
6 | activated Factor XI (FXIa; Heamatologic Technologies, Inc.) | – | The activation rate of the polypeptide of SEQ ID NO:394 (CB 2679d) by factor XIa/calcium and the extent of activation (approximately 100%) were equivalent to those of commercial lots of BeneFIX®
